Assay: label from the status in PepcDB records

| Sequence | protein production |
| --- | --- |
| MIEQELTYQDLRIPSSEIYEAMGYKDSIPDQMVIDETNTLLKRVIPLLRPRFAFFFMEGTLDIEKETLSVQSIHPPTVNPIQDTIPTRSPEQNTFSTQSKSTVFSVGKTIARQLRGSEAFVFFAATAGTEFEVFQHTLQQEEDMVKIYIADSLGSIIAEKTADCMEVALAEYIREKNWKHTNRYSPGYCGWHVSEQQKLFPLFPIAAPCGIRLTDSSLMVPIKSVSGVIGTGTNVRKLEYTCGLCTYENCYRKRKHRLEHHHHHH | failed |
| MEPNIKVQSEDLRYIVQVVTSKIKVYDIIVDPVSVKFYFFDSDNEGIDASFDYIRRELVDKGFIPFLSRDGENFIQVTRRPKQRYFGNIVNVVLLVATILSTMYVGSQYSINFVPRGSFYELRLWAYGFLFFSAPLLLILGIHESAHFLVAKRHHVKASLPFFIPFPVGIGTFGAFISLRDPLPNRKAMTEIGAAGPIAGFLTALPLLFVADYFQGVIKPIPPYYIPFKVTFPLIYQLLGLHTNFTGPIFPMVFAVWVGMFATAMNLIPAGQLDGSHILRGVLGNRANVLSYVFLAFLFGIGFFYTGWWIIAIFVVFTGLVHPPALNDFSKISKLDIVLGIVSLAMFILTFTIVPIKPA | failed |
| MLPVASLLILVPLIFAVVTFFTKTKQLAAGFGFLGSLATLGLTLYAYLNFDSSTAAMQFYESVSWIPFLGVNYSVGIDGVSMPLILLNAIVIPFMILFTWKEEMESPNRFYGLILTMQAAVIGVFVALDFVVFYIFWELTLVPLFFIVNLWGGANRAHASYKFFIYTHVASLVMLLGIFGLFYTALNQTGVPTFDIRELIAQFQFFEPGLMKDGIFLAILFGFLAKLPAFPFHSWLPDAYSEAPTAGSILFILLKIGGYGLFRISLPMLPNTGSPQLMIMILGLLGSVSILYGALLALRQKDLKRMIAYSSLSHMGYVILGSAGLVTLSVSGAMFQQFSHGLIMSIMFMSAGAIQTAAGTRIINELGGLAKKMPMLTVAMMVGFMASLGLPGLTGFIAEFLVLTFTFTNLPVFVVIALLAIVVTAGYHLWAMQRAMFGVYNEKLGDVRDINSIQVFSMAVIALLVLYFGLNPSPVLDMMINNSEAIVSLAAGMGV | failed |
| MRTLLFLMLGSVSAIANAASPAPASASASAASATATATPEQIKLQLREYFFDAAREGRQDMLAEFIRSHYDLNTRDEKGYTALILAAYHGQRPAVEQLLSAGADPCAQDKRGNTALMGAIFKGELGIAKRLMQADCAPDQRNNAGQTAAMYAALFQRTDVLKDLAAKGADLSLKDGQGNDVTKLQRGEFATTPAR | failed |
| MKTNSEELTVFVQVVESGSFSRAAEQLAMANSAVSRIVKRLEEKLGVNLLNRTTRQLSLTEEGAQYFRRAQRILQEMAAAETEMLAVHEIPQGVLSVDSAMPMVLHLLAPLAAKFNERYPHIRLSLVSSEGYINLIERKVDIALRAGELDDSGLRARHLFDSRFRVIASPEYLAKHGTPQSTEELAGHQCLGFTEPGSLNTWAVLDAQGNPYKISPHFTASSGEILRSLCLSGCGIVCLSDFLVDNDIAEGKLIPLLAEQTSDKTHPFNAVYYSDKAVNLRLRVFLDFLVEELGNNLCG | failed |
| MKILVCITHVPDTTSKITFADNKFNTAGVQFIIGPYDEYALSRAVELKEQSGGTVTVLNVGDAETEPTIRKALAIGADDAIRINAVPKDAGFVAAQIAAVAKSGGYDLILMGRESIDYNGGLVHGLVADALGMPCVTPIMKLDIENGVAKMTREIEGGKESVECALPFVAGCQEPIAEWKIPNMRGIMSARTKPLNVVEPVVVADDVVYGTFSLPAPKGACKMIDAANPEELLTLLRNEAKVL | failed |
| MDTCGVGYVALGEAGPVGNMTVVDSPGQEVLNQLDVKTSSEMTSAEASVEMSLPTPLPGFEDSPDQRRLPPEQESLSRLEQPDLSSEMSKVSKPRASKPGRKRGGRTRKGPKRPQQPNPPSAPLVPGLLDQSNPLSTPMPKKRGRKSKAELLLLKLSKDLDRPESQSPKRPPEDFETPSGERPRRRAAQVALLYLQELAEELSTALPAPVSCPEGPKVSSPTKPKKIRQPAACPGGEEVDGAPRDEDFFLQVEAEDVEESEGPSESSSEPEPVVPRSTPRGSTSGKQKPHCRGMAPNGLPNHIMAPVWKCLHLTKDFREQKHSYWEFAEWIPLAWKWHLLSELEAAPYLPQEEKSPLFSVQREGLPEDGTLYRINRFSSITAHPERWDVSFFTGGPLWALDWCPVPEGAGASQYVALFSSPDMNETHPLSQLHSGPGLLQLWGLGTLQQESCPGNRAHFVYGIACDNGCIWDLKFCPSGAWELPGTPRKAPLLPRLGLLALACSDGKVLLFSLPHPEALLAQQPPDAVKPAIYKVQCVATLQVGSMQATDPSECGQCLSLAWMPTRPHQHLAAGYYNGMVVFWNLPTNSPLQRIRLSDGSLKLYPFQCFLAHDQAVRTLQWCKANSHFLVSAGSDRKIKFWDLRRPYEPINSIKRFLSTELAWLLPYNGVTVAQDNCYASYGLCGIHYIDAGYLGFKAYFTAPRKGTVWSLSGSDWLGTIAAGDISGELIAAILPDMALNPINVKRPVERRFPIYKADLIPYQDSPEGPDHSSASSGVPNPPKARTYTETVNHHYLLFQDTDLGSFHDLLRREPMLRMQEGEGHSQLCLDRLQLEAIHKVRFSPNLDSYGWLVSGGQSGLVRIHFVRGLASPLGHRMQLESRAHFNAMFQPSSPTRRPGFSPTSHRLLPTP | failed |
| MVGPLGKPIKVKYYGNVVFASDAVCGQAENYATLKAMKEVGNYTISIQTFENAENVYPEEFLAKPVADEHYLTTEDGSVGIKGHYLDIVKELIEKDKVDIIFAGGKLGSLAKLAELTRPYGIPTYATVRQIMVDGLEHHHHHH | not failed |
| MHMQVIQLHHPYEPNQIPNEEVVMVLGFFDGVHKGHQKVIETGKKIAEEKGLKLAVMTFNQHPSIVFQKVLPENMKYLTSLEQKERLMANLGVDILYIVEFTSAFAQLKPQDFVDQYIVNLNSAVAVSGFDYTYGPKEIAGVKQLPTYAQGRFEVVTVPKEEMTGAKISSTRIREKMEAGEMEEVTELLGYIYETEGTVVHGDARGRLLGFPTANVKVKSTVRLPRIGVYAVQIEVGGKWYVGMGSIGHNDTFGEGRDLTVEVYILDFHQDIYGEQVVVRWNHYLRDQVKFNGAEALIDQLKQDERDTADYFQQSEDK | failed |
| MSVADVALSPIHRGSAFAVGGFGQSTTTHYSVKSVLVFLSVSGSTMPMLILESDSIAEVKLRIQTCNGFRVRRQKLVFSGRELARNASRVKDYGVTGGSVLHLVLKLYDPLLVTVITTCGKVFQFHVDRRRNVGYLKKRISKEGKGFPEVDDQEILFKGEKLDDNRIIDGICKDGNSVIHLLVKKSVEDTVKREEDTATGKDSLLEPLFLTPM | failed |
| MSLKQQFSTKAFQAANLEAYKAQMKEMEESFGALLRQLPSDTEVPGLLEDITRTGLGSGLEFEEIKLLPEVAQQFYIELPIQISVVGGYHDLATFVSGVSSLPRIVTLHDFEIKPVAPGSTSKLRMSILAKTYRYNDKGEGHHHHHH | not failed |
| MAAIDAALKAGEKILSIYEDPKSDFEIERKADNSPLTIADRKAHEAIVAILNETPFPVLSEEGKHMDYAVRRGWDTLWIVDPLDGTKEFIKRNGEFTVNIALVQNAVPVMGVIYVPVKKELYFAVEGTGAYKCSGIVGLEDEGVTLQQMIEKSERMPLADARDHFIAVASRSHLTPETETYIADLKKKHGNVELISSGSSIKICLVAEGKADVYPRFAPTMEWDTAAGHAIARAAGMEVYQAGKEEPLRYNKEDLLNPWFIVEAKRER | not failed |
| MSLKKVLLCVGNELRGDDGVAIALGRLVEEQMPEWSVFFGYDTPESEFGKLRELAPDVIVVADAMSGFKEGEIEFLDLSDERTYLYSTHNLPTPILISYLRGICSKTIFLGISVLLENVLHFSEGLSQGASDSAFVALGRIKELDGMLKEGHHHHHH | not failed |
| MTSFDRPFEAARPDGENPSAHETLAEGGRLRPEATYTIPARQGRAIRMAQGEALMVINRDGSQIGDFWAFVEGDCGEYLSMEHLRPTLRRVSPRPGDVLVSNRRRPILTLLEDSSPGVHDTLVASCDVHRYAQLGHEGYHDNCTDNLRMALGALGLRPTTVPCPLNLWMNTPVVEGGAMEWRPPVSRRGDHVLFRAELDVVVVISCCPMDLLPINGEEAQPRALDVRLRPRPA | not failed |
| MKTIVIEDKQRIESIILQADACFVGITDLEGNPYVVPMNFGYENDTLYLHSGPEGGKIEMLQRNNNVCITFSLGHKLVYQHKQVACSYSMRSESAMCRGKVEFIEDMEEKRHALDIIMRHYTKDQFSYSDPAVRNVKVWKVPVDQMTGKVFGLRADEKP | not failed |
| NGKIALEEHFATEETLMDSAGFVPDKDWPELRSRLLDIQDRRVRLMDEHGIETMILSLNAPAVQAIADSTRANETARRANDFLAEQVAKQPTRFRGFAALPMQDPELAARELERCVKELGFVGALVNGFSQDNRSAVPLYYDMAQYWPFWETVQALDVPFYLHPRNPLPSDARIYDGHAWLLGPTWAFGQETAVHALRLMGSGLFDKYPALKIILGHMGEGLPYSMWRIDHRNAWIKTTPKYPAKRKIVDYFNENFYLTTSGNFRTQTLIDAILEIGADRILFSTDWPFENIDHAADWFENTSISEADRKKIGWGNAQNLFKLNR | not failed |
| MALSTEKKVGFFFMAGLVVLGVMLELGERWNPFEKNLPYVTYLSSTTGLKVGDPVRLAGVEVGKITRIDIEDGRVKVGFEVKPGTRIKTDSVATIRLTNLLGGQFLGISFGTQTADILAPGSEVKSREIANIDIIVDNVSDLTKDARTFLNDLNTNQNEVLGKISTMLDENRGNLKGAVQNLNSITAKMDRGEGSLAMLLNDKALYQNTNELATSLKTVTGKIERGEGSLGKLVNEDALYVEAKGALAELNAGAKDIKEIAAKINKGEGSVGKLVHDEALYNELRDASKNISDVARKINEGQGTLGKLVNDDKLYRDTAAAMKKLDKAADGLSDSGPISVLGSVVGTLF | failed |
| MRGLSRRVQAMKPSATVAVNAKALELRRQGVDLVALTAGEPDFDTPEHVKEAARRALAQGKTKYAPPAGIPELREALAEKFRRENGLSVTPEETIVTVGGKQALFNLFQAILDPGDEVIVLSPYWVSYPEMVRFAGGVVVEVETLPEEGFVPDPERVRRAITPRTKALVVNSPNNPTGAVYPKEVLEALARLAVEHDFYLVSDEIYEHLLYEGEHFSPGRVAPEHTLTVNGAAKAFAMTGWRIGYACGPKEVIKAMASVSSQSTTSPDTIAQWATLEALTNQEASRAFVEMAREAYRRRRDLLLEGLTALGLKAVRPSGAFYVLMDTSPIAPDEVRAAERLLEAGVAVVPGTDFAAFGHVRLSYATSEENLRKALERFARVLGRA | not failed |
| MNAKEILVHSLRLLENGDARGWCDLFHPEGVLEFPYAPPGWKTRFEGRETIWAHMRLFPEHLTVRFTDVQFYETADPDLAIGEFHGDGVATVSGGKLAQDYISVLRTRDGQILLYRDFWNPLRHLEALGGVEAAAKIVQGA | not failed |
| MTLLNDIQVWTTACAYDHLIPGRGVGVLLDDGSQVALFRLDDGSVHAVGNVDPFSGAAVMSRGIVGDRGGRAMVQSPILKQAFALDDGSCLDDPRVSVPVYPARVTPEGRIQVARVAV | failed |
| MIGLSFVSLLTIVCAALGCAVLTWALMPLLIRYALARPNARSSHKVPTPQGAGIAVVAATLAVTALAVGPTTPAFLGLIPLFVAAIVIGIVGAVDDIRPIPVLPRFALQALCVGAVVLTLPSDQQIIPALPLWLERAALLIGGLWFINLVNFMDGLDWMTVAEGLPVTAALLVFGLLGALTQSPMLLAAALGGALLGFAPFNRPGAARVFLGDVGSLPIGLLLGWCLLQLALQGHVAATLLLPLYYLADSTLTLLRRMMRREPFWLAHRSHFYQRATDNGFSVREVVGLVCLTNLALAALAGVSIALNSVAADGLLLAVGAAIVAALLMRFADRKA | failed |
| MTLEKKEYGAPGFWPGSMIGRVHAFETPAPLTRAQLDRLRDEFFETRTEGHLEIWTAIRAASHAQEAGDDELAYAIITAVGILPAEVGPAGEGLGERIPFAEQPLDRLLGMICGCCFPAFTRYRTLERVYDQRGFLYETPKECIATPSNVLPDESTEASAR | not failed |
| QKRLRRKLHEYQKNIPPQVRAARLADDINAKLGRPLQYQNRGRIEYLITLNGPEPHEYRNSPIDYQHYIDKQLKPVADAILPFIGTDFETLSAPQMGLF | failed |
